One series concerns the target Pf MRNBD Y199C (Pyrococcus furiosus, UniProt Q8U1N9;P58301 1-426;1-195+709-882, Y199C;internal_change). Nature of the series: fluorescence polarization; 1 mM MnCl2, 0.1 mM EDTA, no ATP/Mg2+; FP: 25 nM DNA, 50 mM HEPES, 100 mM NaCl, 1 mM MnCl2, 0.1 mM EDTA, 1% glycerol, 1 mM TCEP, 0.1% PEG-6000, pH 7, 15 min room temperature; NMR at 50 C. (In general: In fluorescence polarisation assays a small probe gives low polarisation when free and higher when bound to something large.)

Series [1] has as its target Pf MRNBD wild type (Mre11 + Rad50 NBD) (Pyrococcus furiosus, UniProt Q8U1N9;P58301 1-426;1-195+709-882, internal_change). The series is described as above.

As usually defined, the Kd is the concentration at which binding is half-saturated.

B1: FAM 40-mer dsDNA (dsDNA)
DNA 1: GTGTTCGGACTCTGCCTCAAGACGGTAGTCAACGTGCTTG
DNA 2: CAAGCACGTTGACTACCGTCTTGAGGCAGAGTCCGAACAC
On to B1, for which the Kd was determined as 2500 nM with Pf MRNBD Y199C and 2000 nM in series [1].

B2: FAM 40-mer ssDNA (ssDNA)
DNA: B1 DNA 1
With B2, the dissociation constant (Kd) with Pf MRNBD Y199C worked out at 350 nM; in series [1], 310 nM.

The values are drawn from article PMC8007570.
